The source of these data is patent WO2012132067A1 (dated 2012).

Where a chain is given by its changes, count along the chain named. Numbers in names are those of the source.

Assay [1] concerns the target T1, soluble human IL-6 receptor (human, UniProt P08887 20-357).
T1 construct: The stated range 1-357 is that of the expressed construct; also called hsIL-6R
T1 sequence: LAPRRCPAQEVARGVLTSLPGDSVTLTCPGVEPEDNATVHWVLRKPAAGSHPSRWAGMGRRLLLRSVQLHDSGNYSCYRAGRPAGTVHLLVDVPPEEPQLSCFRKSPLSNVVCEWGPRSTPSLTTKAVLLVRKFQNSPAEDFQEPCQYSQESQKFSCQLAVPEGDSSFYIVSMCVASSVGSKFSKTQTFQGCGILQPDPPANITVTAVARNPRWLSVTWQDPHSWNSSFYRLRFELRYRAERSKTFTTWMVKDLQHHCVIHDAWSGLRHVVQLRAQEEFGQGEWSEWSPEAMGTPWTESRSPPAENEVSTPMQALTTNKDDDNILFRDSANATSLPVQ
Put plainly: summary of the Biacore result of Reference Example 7, told in Reference Example 12. Background: SPR reads the build-up and loss of mass on a sensor chip optically.

Assay [2] deals with T2, human FcRn (human, UniProt P55899 24-290; P61769 21-119, limits assumed).
T2 construct: also called hFcRn
Briefly: Biacore, human FcRn, pH 7.0 (Table 20 not given).

Assay [3] has as its target T3, human FcγRIIb (human, UniProt P31994 43-217, limits assumed).
T3 construct: also called hFcgRIIb
T3 sequence: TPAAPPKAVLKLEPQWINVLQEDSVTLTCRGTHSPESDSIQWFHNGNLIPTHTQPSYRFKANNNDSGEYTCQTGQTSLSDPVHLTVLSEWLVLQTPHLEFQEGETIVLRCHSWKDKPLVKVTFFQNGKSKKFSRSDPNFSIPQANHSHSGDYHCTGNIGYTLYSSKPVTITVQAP
Put plainly: Biacore T100, Protein L capture, FcγR injected, pH 7.4, 25 C (Table 19 not given).

The target in assay [4] is T2, human FcRn. Put plainly: Biacore, Protein L capture, human FcRn injected, pH 7.0 (Table 6 not given).
For a further assay, the target named is T4, mouse FcγRI (mouse, UniProt P26151 25-297).
T4 sequence (looked up): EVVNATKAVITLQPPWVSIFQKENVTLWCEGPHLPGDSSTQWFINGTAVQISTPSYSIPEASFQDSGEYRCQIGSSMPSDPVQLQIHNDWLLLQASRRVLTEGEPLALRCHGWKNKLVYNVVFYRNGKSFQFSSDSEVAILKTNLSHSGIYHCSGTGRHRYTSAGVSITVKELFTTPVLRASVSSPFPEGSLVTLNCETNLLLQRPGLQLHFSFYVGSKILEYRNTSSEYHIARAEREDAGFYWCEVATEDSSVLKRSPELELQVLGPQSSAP
Briefly: SPR (Biacore), antibody held on immobilised mouse FcRn, FcγR injected, pH 7.4, 25 C.

The target of a further assay is T5, mouse FcγRIIb (mouse, UniProt P08101 30-210, limits assumed).
T5 sequence (looked up): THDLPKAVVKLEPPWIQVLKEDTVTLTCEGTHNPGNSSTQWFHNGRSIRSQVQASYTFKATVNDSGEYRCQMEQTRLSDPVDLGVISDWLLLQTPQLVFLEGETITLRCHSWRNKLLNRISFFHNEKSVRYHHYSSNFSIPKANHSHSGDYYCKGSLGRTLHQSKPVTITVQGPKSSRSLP
The assay is described as above.

A further assay concerns the target T6, mouse FcγRIII (mouse, UniProt P08508 31-215).
T6 sequence (looked up): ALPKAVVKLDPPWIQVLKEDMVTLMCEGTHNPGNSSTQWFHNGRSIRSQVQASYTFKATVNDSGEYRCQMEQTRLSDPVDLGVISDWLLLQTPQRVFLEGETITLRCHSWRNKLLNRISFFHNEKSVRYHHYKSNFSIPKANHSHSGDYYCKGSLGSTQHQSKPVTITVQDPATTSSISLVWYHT
Described as above.

For another assay, the target named is T7, human FcγRIIa(H) (human, UniProt P12318 36-217).
T7 construct: also called hFcgRIIa(H); FcγRIIa H type
T7 sequence: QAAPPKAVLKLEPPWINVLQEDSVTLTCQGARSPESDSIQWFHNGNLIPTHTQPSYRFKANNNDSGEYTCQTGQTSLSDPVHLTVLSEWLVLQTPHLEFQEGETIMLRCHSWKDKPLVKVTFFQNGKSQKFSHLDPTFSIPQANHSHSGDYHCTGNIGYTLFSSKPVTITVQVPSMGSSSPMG
Put plainly: Biacore T100, Protein A capture, 25 C; against IgG1 (IL6R-G1d).

The target of assay [5] is T3, human FcγRIIb. The assay is described as above.
Another assay deals with T8, human FcγRIIa(R) (human, UniProt P12318 36-217).
T8 construct: also called hFcgRIIa(R); FcγRIIa R type
T8 chain: T7 sequence with H133R
Put plainly: Biacore T100, Protein A capture, 25 C; against IgG1 (IL6R-G1d); the Japanese text says improved 522-fold.

T2 sequence (P55899 24-290 limits assumed, chain 1 of 2): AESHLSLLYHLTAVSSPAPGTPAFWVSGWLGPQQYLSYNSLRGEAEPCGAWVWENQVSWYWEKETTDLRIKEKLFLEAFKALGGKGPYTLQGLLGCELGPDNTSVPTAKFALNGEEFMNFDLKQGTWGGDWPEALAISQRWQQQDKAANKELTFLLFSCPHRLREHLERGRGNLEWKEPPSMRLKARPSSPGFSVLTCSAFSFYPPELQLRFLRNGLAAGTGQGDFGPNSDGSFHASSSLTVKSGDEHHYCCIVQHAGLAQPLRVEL
T2 sequence (P61769 21-119 limits assumed, chain 2 of 2): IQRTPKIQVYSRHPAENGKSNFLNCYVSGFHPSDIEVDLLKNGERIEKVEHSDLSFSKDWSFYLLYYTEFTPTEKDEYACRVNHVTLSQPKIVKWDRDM

B1: 6RL#9-IgG1 (antibody, V domains shown, not shown: a dimerising Fc or GST)
VH: QVQLVQSGAEVKKPGASVKVSCKASGYTFTSYYMHWVRQAPGQGLEWMGIINPSGGSTSYAQKFQGRVTMTRDTSTSTVYMELSSLRSEDTAVYYCARDDPGGGEYYFDYWGQGTLVTVSS
VL: QSVLTQPPSVSGAPGQRVTISCTGSRSNMGAGYDVHWYQLLPGAAPKLLISHNTHRPSGVPDRFSGSKSGASASLAITGLQAEDEADYYCQSHDSSLSAVVFGGGTKLTVLS
notes: Ca-dependent anti-human IL-6 receptor antibody from a naive human phage library; also called 6RL#9 antibody
Regarding B1, the “Ca-dependence of binding (fold)” value in assay [1] is no less than 100 fold.

B2: VH3/L(WT)-IgG1-F652 (antibody)
heavy: QVQLQESGPGLVKPSETLSLTCAVSGHSISHDHAWSWVRQPPGEGLEWIGFISYSGITNYNPSLQGRVTISRDNSKNTLYLQMNSLRAEDTAVYYCARSLARTTAMDYWGEGTLVTVSSASTKGPSVFPLAPSSKSTSGGTAALGCLVKDYFPEPVTVSWNSGALTSGVHTFPAVLQSSGLYSLSSVVTVPSSSLGTQTYICNVNHKPSNTKVDKKVEPKSCDKTHTCPPCPAPELLGGDSVFLFPPKPKDTLYISRTPEVTCVVVDVSHEDPEVKFNWYVDGVEVHNAKTKPREEQYNSTYRVVSVLTVLHQDWLNGKEYKCKVSNKALPAPIEKTISKAKGQPREPQVYTLPPSRDELTKNQVSLTCLVKGFYPSDIAVEWESNGQPENNYKTTPPVLDSDGSFFLYSKLTVDKSRWQQGNVFSCSVMHEALHYHYTQKSLSLSP
light: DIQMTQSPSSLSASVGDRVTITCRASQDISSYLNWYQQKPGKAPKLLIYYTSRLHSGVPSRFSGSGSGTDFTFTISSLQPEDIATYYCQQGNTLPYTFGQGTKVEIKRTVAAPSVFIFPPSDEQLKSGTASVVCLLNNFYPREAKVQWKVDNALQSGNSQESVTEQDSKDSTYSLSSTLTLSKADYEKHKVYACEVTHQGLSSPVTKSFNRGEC
notes: VH3-IgG1-F11 with P238D (EU); copies: 2 + 2
As for B2, the binding result in the assay with human FcRn [2] and with human FcγRIIb [3] was “binds” in each case.

B3: VH3/L(WT)-IgG1-F21 (antibody)
heavy: B2 heavy with D240P, V310P
light: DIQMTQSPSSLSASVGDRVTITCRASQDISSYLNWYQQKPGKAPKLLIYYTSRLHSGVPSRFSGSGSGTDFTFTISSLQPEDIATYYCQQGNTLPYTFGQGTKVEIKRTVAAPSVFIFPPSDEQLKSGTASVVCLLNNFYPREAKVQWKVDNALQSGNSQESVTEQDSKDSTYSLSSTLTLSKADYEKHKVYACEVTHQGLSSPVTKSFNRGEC
notes: Measured with light chain L(WT)-CK; result sentences name it Fv4-IgG1-F21; also called Fv4-IgG1-F21; copies: 2 + 2
Consider B3, for which the binding result with human FcRn [4] is “binds”.

B4: VH3/L(WT)-IgG1-F157 (antibody)
heavy: B2 heavy with D240P, Y254M, P259A, V310P, M430L
light: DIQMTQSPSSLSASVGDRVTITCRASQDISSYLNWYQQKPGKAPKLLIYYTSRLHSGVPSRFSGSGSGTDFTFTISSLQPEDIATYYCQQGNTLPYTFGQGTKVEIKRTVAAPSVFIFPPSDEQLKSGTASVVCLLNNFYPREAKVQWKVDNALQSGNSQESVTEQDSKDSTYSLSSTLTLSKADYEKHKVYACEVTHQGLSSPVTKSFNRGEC
notes: also called Fv4-IgG1-F157 (name in result sentence); copies: 2 + 2
As to B4, the binding result with human FcRn [4] is listed as “binds”.

B5: mPM1-mIgG1-mF3 (antibody)
heavy: DVQLQESGPVLVKPSQSLSLTCTVTGYSITSDHAWSWIRQFPGNKLEWMGYISYSGITTYNPSLKSRISITRDTSKNQFFLQLNSVTTGDTSTYYCARSLARTTAMDYWGQGTSVTVSSAKTTPPSVYPLAPGSAAQTNSMVTLGCLVKGYFPEPVTVTWNSGSLSSGVHTFPAVLQSDLYTLSSSVTVPSSTWPSETVTCNVAHPASSTKVDKKIVPRDCGCKPCICTVPEVSSVFIFPPKPKDVLYITLEPKVTCVVVDISKDDPEVQFSWFVDDVEVHTAQTQPREEQFNSTFRSVSELPIMHQDWLNGKEFKCRVNSAAFPAPIEKTISKTKGRPKAPQVYTIPPPKEQMAKDKVSLTCMITDFFPEDITVEWQWNGQPAENYKNTQPIMDTDGSYFVYSKLNVQKSNWEAGNTFTCSVLHEGLKFHHTEKSLSHSPGK
light: DIQMTQTTSSLSASLGDRVTISCRASQDISSYLNWYQQKPDGTIKLLIYYTSRLHSGVPSRFSGSGSGTDYSLTINNLEQEDIATYFCQQGNTLPYTFGGGTKLEIKRADAAPTVSIFPPSSEQLTSGGASVVCFLNNFYPKDINVKWKIDGSERQNGVLNSWTDQDSKDSTYSMSSTLTLTKDEYERHNSYTCEATHKTSTSPIVKSFNRNEC
notes: Mouse IgG1 anti-human IL-6R antibody of mPM1H-mIgG1-mF3 and mPM1L-mk1; copies: 2 + 2
As for B5, the binding result with mouse FcγRI is reported as “no binding”; in the assay with mouse FcγRIIb it was “binds”; with mouse FcγRIII, “binds”.

B6: Fv4-IgG1-F20 (antibody)
heavy: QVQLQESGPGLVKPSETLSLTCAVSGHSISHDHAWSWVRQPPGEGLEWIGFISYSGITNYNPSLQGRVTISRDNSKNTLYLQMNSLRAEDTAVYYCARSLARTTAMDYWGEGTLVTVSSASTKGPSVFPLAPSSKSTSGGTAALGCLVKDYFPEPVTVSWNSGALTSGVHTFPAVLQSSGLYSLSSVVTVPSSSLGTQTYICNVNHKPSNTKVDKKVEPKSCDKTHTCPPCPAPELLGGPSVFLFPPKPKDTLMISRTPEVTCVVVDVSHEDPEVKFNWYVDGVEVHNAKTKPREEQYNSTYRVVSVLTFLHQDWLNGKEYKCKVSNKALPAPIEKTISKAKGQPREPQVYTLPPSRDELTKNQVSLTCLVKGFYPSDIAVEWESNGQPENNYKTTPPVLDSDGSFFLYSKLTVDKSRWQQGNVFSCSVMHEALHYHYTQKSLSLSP
light: DIQMTQSPSSLSASVGDSVTITCQASTDISSHLNWYQQKPGKAPELLIYYGSHLLSGVPSRFSGSGSGTDFTFTISSLEAEDAATYYCGQGNRLPYTFGQGTKVEIERTVAAPSVFIFPPSDEQLKSGTASVVCLLNNFYPREAKVQWKVDNALQSGNSQESVTEQDSKDSTYSLSSTLTLSKADYEKHKVYACEVTHQGLSSPVTKSFNRGEC
notes: VH3-IgG1-F20 with VL3-CK; copies: 2 + 2
As to B6, the binding result with mouse FcγRI, with mouse FcγRIIb and in the assay with mouse FcγRIII was “binds” each time.

B7: IgG1-v3 (IL6R-G1d_v3/IL6R-L) (antibody)
heavy: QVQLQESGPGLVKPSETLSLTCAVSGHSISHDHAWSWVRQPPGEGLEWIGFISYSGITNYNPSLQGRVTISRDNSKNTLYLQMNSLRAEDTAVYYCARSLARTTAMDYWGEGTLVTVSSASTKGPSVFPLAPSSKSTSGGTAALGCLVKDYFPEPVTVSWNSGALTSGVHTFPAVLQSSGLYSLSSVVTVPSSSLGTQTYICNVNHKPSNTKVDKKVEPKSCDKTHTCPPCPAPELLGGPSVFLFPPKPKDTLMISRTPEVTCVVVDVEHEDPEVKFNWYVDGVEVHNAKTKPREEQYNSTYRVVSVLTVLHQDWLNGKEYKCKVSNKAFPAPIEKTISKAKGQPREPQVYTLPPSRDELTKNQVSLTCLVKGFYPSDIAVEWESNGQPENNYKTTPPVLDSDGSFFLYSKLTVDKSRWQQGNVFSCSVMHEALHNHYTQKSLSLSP
light: DIQMTQSPSSLSASVGDRVTITCRASQDISSYLNWYQQKPGKAPKLLIYYTSRLHSGVPSRFSGSGSGTDFTFTISSLQPEDIATYYCQQGNTLPYTFGQGTKVEIK
notes: IL6R-G1d with S267E/L328F (EU), known mutation used for comparison; copies: 2 + 2
For B7, the “relative KD (KD of IgG1 divided by KD of the variant)” value stood at 0.51 fold in the assay with human FcγRIIa(H), 408 fold with human FcγRIIb [5] and 522 fold with human FcγRIIa(R).

B8: FH4-IgG1 (antibody, V domains shown)
VH: QVQLVQSGAEVKKPGSSVKVSCKASGGTFSSYAISWVRQAPGQGLEWMGGIIPIFGTANYAQKFQGRVTITADESTSTAYMELSSLRSEDTAVYYCARERDYYDSSGYYDAFDIWGQGTMVTVSS
VL: ETTVTQSPSFLSASVGDRVTITCITTTDIDDDMNWFQQEPGKAPKLLISEGNILRPGVPSRFSSSGYGTDFTLTISKLQPEDFATYYCLQSDNLPFTFGQGTKLEIKR
notes: Ca-dependent anti-human IL-6 receptor antibody from a naive human phage library
In the case of B8, the “Ca-dependence of binding (fold)” value in assay [1] was no less than 100 fold.
